Experimental data as given in IntAct's records for PubMed 32514408.

B1: TNF receptor-associated factor 3 (Homo sapiens), Q13114 (parent)
chain: MESSKKMDSPGALQTNPPLKLHTDRSAGTPVFVPEQGGYKEKFVKTVEDKYKCEKCHLVLCSPKQTECGHRFCESCMAALLSSSSPKCTACQESIVKDKVFKDNCCKREILALQIYCRNESRGCAEQLMLGHLLVHLKNDCHFEELPCVRPDCKEKVLRKDLRDHVEKACKYREATCSHCKSQVPMIALQKHEDTDCPCVVVSCPHKCSVQTLLRSELSAHLSECVNAPSTCSFKRYGCVFQGTNQQIKAHEASSAVQHVNLLKEWSNSLEKKVSLLQNESVEKNKSIQSLHNQICSFEIEIERQKEMLRNNESKILHLQRVIDSQAEKLKELDKEIRPFRQNWEEADSMKSSVESLQNRVTELESVDKSAGQVARNTGLLESQLSRHDQMLSVHDIRLADMDLRFQVLETASYNGVLIWKIRDYKRRKQEAVMGKTLSLYSQPFYTGYFGYKMCARVYLNGDGMGKGTHLSLFFVIMRGEYDALLPWPFKQKVTLMLMDQGSSRRHLGDAFKPDPNSSSFKKPTGEMNIASGCPVFVAQTVLENGTYIKDDTIFIKVIVDTSDLPDP
partner: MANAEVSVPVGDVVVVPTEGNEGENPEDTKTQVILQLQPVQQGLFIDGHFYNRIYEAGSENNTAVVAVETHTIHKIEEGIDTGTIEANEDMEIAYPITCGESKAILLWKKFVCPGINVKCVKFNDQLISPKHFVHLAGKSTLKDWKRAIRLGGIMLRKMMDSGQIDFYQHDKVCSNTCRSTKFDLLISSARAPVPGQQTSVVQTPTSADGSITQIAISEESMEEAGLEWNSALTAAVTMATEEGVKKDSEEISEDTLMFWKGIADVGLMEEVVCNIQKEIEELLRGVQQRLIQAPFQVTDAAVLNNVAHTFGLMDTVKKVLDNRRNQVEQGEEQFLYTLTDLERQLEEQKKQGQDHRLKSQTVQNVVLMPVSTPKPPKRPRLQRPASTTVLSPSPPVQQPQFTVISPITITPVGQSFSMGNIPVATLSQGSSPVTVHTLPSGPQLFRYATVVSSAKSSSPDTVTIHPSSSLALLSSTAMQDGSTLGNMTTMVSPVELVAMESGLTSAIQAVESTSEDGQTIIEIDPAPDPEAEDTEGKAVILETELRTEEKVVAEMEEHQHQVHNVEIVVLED

Variants of: B1
Details: with gmeb1_human GMEB1, Q9Y692

Row | Variant | effect of a mutation on the interaction
1 | MESSKKMDSPGALQTNPPLKLHTDRSAGTPVFVPEQGGYKEKFVKTVEDKYKAEKAHLVLCSPKQTECGHRFCESCMAALLSSSSPKCTACQESIVKDKVFKDNCCKREILALQIYCRNESRGCAEQLMLGHLLVHLKNDCHFEELPCVRPDCKEKVLRKDLRDHVEKACKYREATCSHCKSQVPMIALQKHEDTDCPCVVVSCPHKCSVQTLLRSELSAHLSECVNAPSTCSFKRYGCVFQGTNQQIKAHEASSAVQHVNLLKEWSNSLEKKVSLLQNESVEKNKSIQSLHNQICSFEIEIERQKEMLRNNESKILHLQRVIDSQAEKLKELDKEIRPFRQNWEEADSMKSSVESLQNRVTELESVDKSAGQVARNTGLLESQLSRHDQMLSVHDIRLADMDLRFQVLETASYNGVLIWKIRDYKRRKQEAVMGKTLSLYSQPFYTGYFGYKMCARVYLNGDGMGKGTHLSLFFVIMRGEYDALLPWPFKQKVTLMLMDQGSSRRHLGDAFKPDPNSSSFKKPTGEMNIASGCPVFVAQTVLENGTYIKDDTIFIKVIVDTSDLPDP [C53A;C56A] | with no effect
